# Data: EP4671269A1
# Values joined by “and” are separate entries in the source; they are usually repeats but may differ in a detail not shown here. Equal values may be shown once.
# T1: TGF-β2, P61812
# T1 chain: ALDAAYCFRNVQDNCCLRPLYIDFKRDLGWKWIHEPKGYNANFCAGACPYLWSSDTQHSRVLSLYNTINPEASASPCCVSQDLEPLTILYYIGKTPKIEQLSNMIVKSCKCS
# B1: TGF-βRII-mFc, P37173 24-159 (Fc fusion, UniProt P37173 24-159, looked up, not shown: a dimerising Fc or GST)
# chain: IPPHVQKSVNNDMIVTDNNGAVKFPQLCKFCDVRFSTCDNQKSCMSNCSITSICEKPQEVCVAVWRKNDENITLETVCHDPKLPYHDFILEDAASPKCIMKEKKKPGETFFMCSCSSDECNDNIIFSEEYNTSNPD
# Columns and labels:
# Conditions in all cases: remark: other sources report otherwise
# [1] = biological target: T1, TGF-β2, P61812; assay: indirect ELISA; […] diluted 1:729
# [2] = biological target: T1, TGF-β2, P61812; assay: indirect ELISA; 0 (blank)
# [3] = biological target: T1, TGF-β2, P61812; assay: indirect ELISA; […] diluted 1:243
# [4] = biological target: T1, TGF-β2, P61812; assay: indirect ELISA; […] diluted 1:27
# [5] = biological target: T1, TGF-β2, P61812; assay: indirect ELISA; […] diluted 1:81
# [6] = biological target: T1, TGF-β2, P61812; assay: indirect ELISA; […] diluted 1:9
# [7] = biological target: T1, TGF-β2, P61812; assay: indirect ELISA; […]
# [8] = biological target: T1, TGF-β2, P61812; assay: indirect ELISA, TGF-β2 coated
# [9] = biological target: T1, TGF-β2, P61812; assay: indirect ELISA; […] diluted 1:3
binder,measurement,setting,value
B1,OD450,[1],0.184 OD and 0.152 OD
same,OD450,[2],0.176 OD and 0.16 OD
same,OD450,[3],0.202 OD and 0.158 OD
same,OD450,[4],0.432 OD and 0.462 OD
same,OD450,[5],0.253 OD and 0.211 OD
same,OD450,[6],0.908 OD and 0.925 OD
same,OD450,[7],1.46 OD and 1.44 OD
same,EC50,[8],1.03 nM
same,OD450,[9],1.34 OD and 1.32 OD
